Measured values taken from PMC6748615.
Where two headings read alike, the source gives them in different places. Each block holds one molecule with its values, some of them ahead of it.

Columns and labels:
[1] = biological target: biotinylated human FcRn (human) (UniProt P55899); assay: FcRn affinity chromatography
rat FcRn (rat) = rat FcRn (rat) (UniProt P13599); assay: SPR
[2] = biological target: biotinylated human FcRn (human) (UniProt P55899); assay: SPR
[3] = biological target: Human CD16a (FcγRIIIa-V158) (human) (UniProt P08637); assay: SPR
[4] = biological target: biotinylated human FcRn (human) (UniProt P55899); assay: SPR; remark: listed apart in the source
[5] = biological target: biotinylated human FcRn (human) (UniProt P55899)
[6] = biological target: biotinylated cynomolgus FcRn (cynomolgus) (UniProt Q8SPV9)
Chain of UniProt Q8SPV9 (Q8SPV9 24-297, chain 1 of 2): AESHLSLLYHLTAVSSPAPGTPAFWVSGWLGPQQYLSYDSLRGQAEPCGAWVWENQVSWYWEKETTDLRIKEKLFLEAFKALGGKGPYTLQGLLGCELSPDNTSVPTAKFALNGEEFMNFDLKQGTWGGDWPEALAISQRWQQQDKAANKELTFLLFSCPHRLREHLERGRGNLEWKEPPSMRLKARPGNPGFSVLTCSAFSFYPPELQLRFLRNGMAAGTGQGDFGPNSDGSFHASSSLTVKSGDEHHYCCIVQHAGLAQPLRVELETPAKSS
Chain of UniProt Q8SPV9 (Q8SPW0 21-119, chain 2 of 2, further chain): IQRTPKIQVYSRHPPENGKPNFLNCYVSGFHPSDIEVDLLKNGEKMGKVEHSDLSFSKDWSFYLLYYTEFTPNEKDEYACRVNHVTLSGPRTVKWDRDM

mAb1 M252Y = assay: BLI
mAb1 N434F = assay: BLI
mAb1 N434Y = assay: BLI

elution pH [1]: 7.94 pH
Kd (rat FcRn (rat)): 77 nM
steady state RU, pH 7.4 (rat FcRn (rat)): 23.6 RU
Kd [2]: 1780 nM
koff [2]: 0.144 s⁻¹
kon [2]: 83700 M⁻¹ s⁻¹
steady state RU, pH 7.4 [2]: 13.9 RU
affinity fold change vs WT [3]: 0.89 fold
Molecule: mAb1 AAA (T307A/E380A/N434A) (antibody)

elution pH [1]: 7.18 pH
Kd (rat FcRn (rat)): 6310 nM
Molecule: mAb1 E380C (antibody)

elution pH [1]: 7.33 pH
Kd (rat FcRn (rat)): 149 nM
Molecule: mAb1 K288D (antibody)

elution pH [1]: 7.39 pH
Kd (rat FcRn (rat)): 190 nM
Molecule: mAb1 K288N (antibody)

steady state RU, pH 7.4 [4]: 18.5 RU
elution pH [1]: 8.29 pH
Kd (rat FcRn (rat)): 74 nM
steady state RU, pH 7.4 (rat FcRn (rat)): 24.8 RU
Kd [2]: 272 nM
koff [2]: 0.052 s⁻¹
kon [2]: 193000 M⁻¹ s⁻¹
steady state RU, pH 7.4 [2]: 18.3 RU
affinity fold change vs WT [3]: 1.04 fold
Molecule: mAb1 LS (M428L/N434S) (antibody)

elution pH [1]: 7.88 pH
Kd (rat FcRn (rat)): 25 nM
Kd [2]: 3100 nM
Molecule: mAb1 M252Y (antibody)

elution pH [1]: 7.92 pH
Kd (rat FcRn (rat)): 9.54 nM
steady state RU, pH 7.4 (rat FcRn (rat)): 39.1 RU
Kd [2]: 232 nM
koff [2]: 0.872 s⁻¹
kon [2]: 37600 M⁻¹ s⁻¹
steady state RU, pH 7.4 [2]: 10.7 RU
steady state RU [3]: 103 RU
Molecule: mAb1 MDQN (DQ: T256D/T307Q) (antibody)

elution pH [1]: 7.92 pH
Kd (rat FcRn (rat)): 8.24 nM
steady state RU, pH 7.4 (rat FcRn (rat)): 42.1 RU
Kd [2]: 169 nM
koff [2]: 0.892 s⁻¹
kon [2]: 52900 M⁻¹ s⁻¹
steady state RU, pH 7.4 [2]: 12.2 RU
steady state RU [3]: 126 RU
Molecule: mAb1 MDWN (DW: T256D/T307W) (antibody)

Kd (rat FcRn (rat)): 26 nM
steady state RU, pH 7.4 (rat FcRn (rat)): 54.9 RU
Kd [2]: 165 nM
steady state RU, pH 7.4 [2]: 20.1 RU
Molecule: mAb1 N434F (antibody)

elution pH [1]: 7.56 pH
Kd (rat FcRn (rat)): 194 nM
Molecule: mAb1 N434P (antibody)

elution pH [1]: 8.46 pH
Kd (rat FcRn (rat)): 23 nM
steady state RU, pH 7.4 (rat FcRn (rat)): 47 RU
Kd [2]: 137 nM
koff [2]: 0.052 s⁻¹
kon [2]: 359000 M⁻¹ s⁻¹
steady state RU, pH 7.4 [2]: 22.6 RU
affinity fold change vs WT [3]: 1.41 fold
Molecule: mAb1 N434Y (antibody)

elution pH [1]: 7.82 pH
Kd (rat FcRn (rat)): 86 nM
Kd [2]: 6700 nM
Molecule: mAb1 T256D (antibody)

elution pH [1]: 7.63 pH
Kd (rat FcRn (rat)): 113 nM
Molecule: mAb1 T256E (antibody)

elution pH [1]: 7.61 pH
Kd (rat FcRn (rat)): 132 nM
Molecule: mAb1 T307A (antibody)

elution pH [1]: 7.58 pH
Kd (rat FcRn (rat)): 141 nM
Kd [2]: 8130 nM
koff [2]: 0.298 s⁻¹
kon [2]: 43700 M⁻¹ s⁻¹
Molecule: mAb1 T307E (antibody)

elution pH [1]: 7.61 pH
Kd (rat FcRn (rat)): 131 nM
Molecule: mAb1 T307F (antibody)

elution pH [1]: 7.4 pH
Kd (rat FcRn (rat)): 279 nM
Molecule: mAb1 T307M (antibody)

elution pH [1]: 7.86 pH
Kd (rat FcRn (rat)): 58 nM
Kd [2]: 5720 nM
koff [2]: 0.215 s⁻¹
kon [2]: 39600 M⁻¹ s⁻¹
affinity fold change vs WT [3]: 1 fold
Molecule: mAb1 T307Q (antibody)

elution pH [1]: 7.75 pH
Kd (rat FcRn (rat)): 111 nM
Kd [2]: 8740 nM
Molecule: mAb1 T307W (antibody)

elution pH [1]: 7.37 pH
Kd (rat FcRn (rat)): 207 nM
Kd [2]: 2380 nM
koff [2]: 0.386 s⁻¹
kon [2]: 162000 M⁻¹ s⁻¹
affinity fold change vs WT [3]: 1 fold
Molecule: mAb1 WT (model IgG1) (antibody)

elution pH [1]: 7.33 pH
Kd (rat FcRn (rat)): 131 nM
Molecule: mAb1 Y436H (antibody)

elution pH [1]: 7.22 pH
Kd (rat FcRn (rat)): 233 nM
Molecule: mAb1 Y436N (antibody)

elution pH [1]: 7.39 pH
Kd (rat FcRn (rat)): 1140 nM
Molecule: mAb1 Y436W (antibody)

elution pH [1]: 8.51 pH
Kd (rat FcRn (rat)): 5.12 nM
steady state RU, pH 7.4 (rat FcRn (rat)): 65.2 RU
Kd [2]: 115 nM
koff [2]: 0.282 s⁻¹
kon [2]: 24600 M⁻¹ s⁻¹
steady state RU, pH 7.4 [2]: 19.8 RU
steady state RU [3]: 59.2 RU
Molecule: mAb1 YDQN (M252Y/T256D/T307Q) (antibody)

elution pH [1]: 8.29 pH
Kd (rat FcRn (rat)): 5.86 nM
steady state RU, pH 7.4 (rat FcRn (rat)): 56 RU
Kd [2]: 93.6 nM
koff [2]: 0.593 s⁻¹
kon [2]: 63300 M⁻¹ s⁻¹
steady state RU, pH 7.4 [2]: 9.7 RU
steady state RU [3]: 67.7 RU
Molecule: mAb1 YDTN (YD: M252Y/T256D) (antibody)

elution pH [1]: 8.12 pH
Kd (rat FcRn (rat)): 7.76 nM
steady state RU, pH 7.4 (rat FcRn (rat)): 61.8 RU
Kd [2]: 218 nM
koff [2]: 0.405 s⁻¹
kon [2]: 18500 M⁻¹ s⁻¹
steady state RU, pH 7.4 [2]: 15.2 RU
steady state RU [3]: 43.5 RU
Molecule: mAb1 YEQN (M252Y/T256E/T307Q) (antibody)

elution pH [1]: 7.83 pH
Kd (rat FcRn (rat)): 8.43 nM
steady state RU, pH 7.4 (rat FcRn (rat)): 55.1 RU
Kd [2]: 128 nM
koff [2]: 0.757 s⁻¹
kon [2]: 59200 M⁻¹ s⁻¹
steady state RU, pH 7.4 [2]: 9.8 RU
steady state RU [3]: 58.5 RU
Molecule: mAb1 YETN (M252Y/T256E) (antibody)

steady state RU, pH 7.4 [4]: 13.1 RU
elution pH [1]: 8.14 pH
steady state RU, pH 7.4 (rat FcRn (rat)): 53.9 RU
Kd [2]: 342 nM
kon [2]: 143000 M⁻¹ s⁻¹
steady state RU, pH 7.4 [2]: 13.2 RU
affinity fold change vs WT [3]: 0.52 fold
Molecule: mAb1 YTE (M252Y/S254T/T256E) (antibody)

elution pH [1]: 8.14 pH
Kd (rat FcRn (rat)): 5.21 nM
steady state RU, pH 7.4 (rat FcRn (rat)): 66.1 RU
Kd [2]: 118 nM
kon [2]: 48300 M⁻¹ s⁻¹
steady state RU, pH 7.4 [2]: 15.9 RU
steady state RU [3]: 67.5 RU
Molecule: mAb1 YTWN (M252Y/T307W) (antibody)

plasma elimination half-life t1/2 in hFcRn Tg32 transgenic mice, 2.5 mg/kg i.v. [5]: 24.5 days
Molecule: mAb2 DQ (T256D/T307Q) (antibody)

plasma elimination half-life t1/2 in hFcRn Tg32 transgenic mice, 2.5 mg/kg i.v. [5]: 20.1 days
plasma elimination half-life t1/2 in cynomolgus monkeys, 2.5 mg/kg i.v. [6]: 20.4 days
Molecule: mAb2 DW (T256D/T307W) (antibody)

plasma elimination half-life t1/2 in hFcRn Tg32 transgenic mice, 2.5 mg/kg i.v. [5]: 17.5 days
plasma elimination half-life t1/2 in cynomolgus monkeys, 2.5 mg/kg i.v. [6]: 23.5 days
Molecule: mAb2 YD (M252Y/T256D) (antibody)

fold slower off rate than WT (mAb1 M252Y): > 1.8 fold
fold slower off rate than WT (mAb1 N434F): > 1.8 fold
fold slower off rate than WT (mAb1 N434Y): > 1.8 fold
B1: rat FcRn (receptor)
chain 1: AEPRLPLMYHLAAVSDLSTGLPSFWATGWLGAQQYLTYNNLRQEADPCGAWIWENQVSWYWEKETTDLKSKEQLFLEAIRTLENQINGTFTLQGLLGCELAPDNSSLPTAVFALNGEEFMRFNPRTGNWSGEWPETDIVGNLWMKQPEAARKESEFLLTSCPERLLGHLERGRQNLEWKEPPSMRLKARPGNSGSSVLTCAAFSFYPPELKFRFLRNGLASGSGNCSTGPNGDGSFHAWSLLEVKRGDEHHYQCQVEHEGLAQPLTVDLDSPARSS
chain 2: IQKTPQIQVYSRHPPENGKPNFLNCYVSQFHPPQIEIELLKNGKKIPNIEMSDLSFSKDWSFYILAHTEFTPTETDVYACRVKHVTLKEPKTVTWDRDM
